The record followed here is PMC12443421.

Numbering of substitutions follows the chain as printed. Numbers in names are those of the source.

The target of this assay is wild-type unmodified 147 bp nucleosome (nucleosome core particle), P04908;P62807;Q71DI3;P62805. As to the kind of experiment: EMSA. The note with it: chain shown with the change. For orientation: Mobility shift assays separate free from complexed probe on a gel.

B1: KDM5A^CAT (lysine demethylase 5A, residues 1-801), P29375 R264A; R265A; R266A; R271A (protein)
chain: MAGVGPGGYAAEFVPPPECPVFEPSWEEFTDPLSFIGRIRPLAEKTGICKIRPPKDWQPPFACEVKSFRFTPRVQRLNELEAMTRVRLDFLDQLAKFWELQGSTLKIPVVERKILDLYALSKIVASKGGFEMVTKEKKWSKVGSRLGYLPGKGTGSLLKSHYERILYPYELFQSGVSLMGVQMPNLDLKEKVEPEVLSTDTQTSPEPGTRMNILPKRTRRVKTQSESGDVSRNTELKKLQIFGAGPKVVGLAMGTKDKEDEVTAAAKVTNRSDAFNMQMRQRKGTLSVNFVDLYVCMFCGRGNNEDKLLLCDGCDDSYHTFCLIPPLPDVPKGDWRCPKCVAEECSKPREAFGFEQAVREYTLQSFGEMADNFKSDYFNMPVHMVPTELVEKEFWRLVSSIEEDVIVEYGADISSKDFGSGFPVKDGRRKILPEEEEYALSGWNLNNMPVLEQSVLAHINVDISGMKVPWLYVGMCFSSFCWHIEDHWSYSINYLHWGEPKTWYGVPSHAAEQLEEVMRELAPELFESQPDLLHQLVTIMNPNVLMEHGVPVYRTNQCAGEFVVTFPRAYHSGFNQGYNFAEAVNFCTADWLPIGRQCVNHYRRLRRHCVFSHEELIFKMAADPECLDVGLAAMVCKELTLMTEEETRLRESVVQMGVLMSEEEVFELVPDDERQCSACRTTCFLSALTCSCNPERLVCLYHPTDLCPCPMQKKCLRYRYPLEDLPSLLYGVKVRAQSYDTWVSRVTEALSANFNHKKDLIELRVMLEDAEDRKYPENDLFRKLRDAVKEAETCASVAQLL
By Kd is commonly meant the free concentration of one partner at which half of the binding sites on the other are occupied at equilibrium, for simple one-to-one binding. Take B1: the Kd stood at 10.3 µM.

B2: KDM5A^CAT (lysine demethylase 5A, residues 1-801), P29375 R217A; R219A; R220A (protein)
chain: B1 chain with R217A, R219A, R220A, A264R, A265R, A266R
In turn, B2 showed a Kd of 12 µM.

B3: KDM5A^CAT (lysine demethylase 5A, residues 1-801), P29375 R210A; R217A; R219A; R220A; R232A; R264A; R265A; R266A; R271A; R280A; R282A (protein)
chain: B1 chain with R210A, R217A, R219A, R220A, R232A, R271A, R280A, R282A
In the case of B3, the Kd is 14 µM. In addition, the Kd (0-32 µM KDM5A^MutR titration) is 14 µM.

B4: KDM5A^CAT (lysine demethylase 5A, residues 1-801), P29375 R280A; R282A (protein)
chain: B1 chain with A264R, A265R, A266R, R280A, R282A
For the molecule B4, the Kd turned out to be 7.8 µM.
